Square brackets hold non-standard residues; d marks the D form. Ends that are not written are not given here. LTF = trifluoroleucine
Experiments:
[1] = tested on: type 2 mouse diabetic wound; experiment: Diabetic mouse wound model; format: in vivo; settings: vs exosomes alone and untreated mice
[2] = Passive microrheology (multiple particle tracking); format: physicochemical; settings: 4 °C
Protocol: Microrheology. Protein was concentrated to 2 mM, as measured by BCA assay, and immediately aliquoted 27.7 μL into a 200 μL PCR tube. 1% v/v (or 0.3 μL) of […] red polystyrene fluorometric beads (FluoSpheres) were then added to the sample. A glass capillary tube was then loaded with sample by capillary action and sealed to prevent evaporation while being affixed to a microscopy slide using two-component fast-curing epoxy (JB Weld). Samples were then imaged at 0 h as a starting measurement and then every 12 h using a Leica DMI4000b inverted microscope equipped with a Leica DFC310 FX 1.4 megapixel camera at 40× magnification with 2×2 binning. […] Each image series was recorded for a total of 300 frames with a lag time (i) of 0.037 s between each frame. Relaxation exponents i.e. the logarithmic slopes of particle mean-squared displacements (MSDs) with respect to lag time as determined by multiple particle tracking (MPT) analysis were used to determine when equilibration of the hydrogel was complete and measurements were no longer recorded (60 h in this case). […]
Gelation kinetics of the hydrogels were assessed using passive microrheology (FIG. 61a-e). Time to gelation was measured immediately after concentration to 2 mM at 4° C. by incubating with 1 μm fluorescent tracer beads added to the protein in solution state at a final concentration of 1% (v/v). […]

[3] = Linear regression model predictions; settings: from 181.7 nm fiber diameter
Protocol: A linear model was previously established correlating the increase in thermostability upon binding CCM, and the loss of ordered structure as measured by ATR-FTIR. Based on this model, a 14.5% loss of structure is predicted, which translates to an error of just 0.4% from a measured structure loss of 14.1%, within the root mean squared error (RMSE) of the model, which is calculated here to be 0.9%. […] While CCM-binding imposes a negative impact on the ordered structure of the coiled-coil, a loss of secondary structure measured by ATR-FTIR has been associated with a positive interaction of CCM in the hydrophobic pore, which helps stabilize the protein and increase thermostability. Thus, the fluorination of Q2LTF results in a strengthened interaction with CCM.
Binding of CCM causes fiber thickening of Q2LTF (FIG. 34d, 44), consistent with recent analysis of supramolecular coiled-coil fibers. Fiber-thickening by CCM has been established for collagen activity as well as coiled-coil fibers and is explained by increased solvation of polar groups and burying of the hydrophobic residues leading to increased surface activity. […] While this relationship was assessed for non-fluorinated CCM fibers, the predicted fiber diameter is […] based on a 181.7 nm Q2LTF fiber diameter translating to an error of […], just outside our model's root mean squared error (RMSE) of […] (FIG. 45). […]

[4] = Curcumin binding by fluorescence spectroscopy; settings: 15 μM protein, 1% v/v DMSO
Protocol: Drug Binding. Protein variants were bound to curcumin (CCM) in increasing CCM:protein ratios at 1:1 to 10:1. Protein was diluted to a final concentration of 15 μM before CCM solubilized in DMSO was added to the protein sample at a final 1% v/v DMSO. Samples were incubated on a thermomixer for 30 min at 300 rpm in the dark at 4° C. Samples were then removed and 300 μL of each sample was added to a 96-well solid black plate. Protein variants were excited at 420 nm and emission was read at 520 nm using a BioTek Synergy H1 microplate reader at RT. The baseline spectra of CCM, at 15-150 μM in 50 mM PB pH 4.0 containing 1% v/v DMSO, was subtracted from the fluorescence intensities of the protein-CCM at corresponding concentrations. Resulting normalized relative fluorescence intensities were analyzed using Specific binding kinetics in GraphPad Prism (GraphPad Software).
Curcumin Binding. CCM was bound to Q2LTF. […] Samples were loaded onto a 96-well black plate and excited at 420 nm and emission was read at 520 nm using a BioTek Synergy H1 microplate reader at room temperature (RT). Normalized relative fluorescence intensities were calculated and analyzed in Graphpad Prism (GraphPad Software). Binding affinity was calculated using the specific binding kinetics equation.

[5] = measured in Q previously; cited from earlier work

## Q5: Q hydrogel variant from Rosetta Monte Carlo search, SEQ ID NO: 14 (MRGSHHHHHHGSIEGRVKEITFIKKTIEQIAEEMKEINKAIHDIRHALENISKK) [Protein Q5]
[1]
  diabetic wound closure: faster time to closure
[2]
  time to complete gelation (sol-gel transition): ≤ 24 h

## Q2LTF: protein-engineered fluorinated coiled-coil fiber, Q2 with trifluoroleucine, SEQ ID NO: 20 (MRGSHHHHHHGSIEGRVKE[LTF][LTF]F[LTF]KKTAEQM[LTF]EE[LTF]KETNKA[LTF]HDVRH[LTF][LTF]ENQSK[LTF]; ends and bridges not checked) [Protein Q2LTF]
[3]
  predicted CCM-thickened fiber diameter: 12.9 μm
[4]
  Kd: 0.06 μM:μM [protein:CCM]

## Q: rationally designed pentameric coiled-coil derived from C, SEQ ID NO: 23 (MRGSHHHHHHGSIEGRVKEITFLKNTAPQMLRELQETNAALQDVRELLRQQSKL) [reference compound]
[5]
  protofibril diameter: 3.5±0.5 nm

Source: patent US20240115742A1, “FLUORINATED FIBERS FOR MULTIMODAL 1H AND 19F MRI, ULTRASOUND, FLUORESCENCE DETECTION AND CONFORMATIONAL AND TEMPERATURE DETECTION BY 19F MRS” (New York University, priority 2022, published 2024)
